# Experimental data as given in patent publication US20260193366A1 (APOGEE THERAPEUTICS, published 2026).
# Numbering of substitutions follows the chain as printed.
# T1: hIL-4Rα on cells (human, UniProt P24394 26-825)
# T1 sequence: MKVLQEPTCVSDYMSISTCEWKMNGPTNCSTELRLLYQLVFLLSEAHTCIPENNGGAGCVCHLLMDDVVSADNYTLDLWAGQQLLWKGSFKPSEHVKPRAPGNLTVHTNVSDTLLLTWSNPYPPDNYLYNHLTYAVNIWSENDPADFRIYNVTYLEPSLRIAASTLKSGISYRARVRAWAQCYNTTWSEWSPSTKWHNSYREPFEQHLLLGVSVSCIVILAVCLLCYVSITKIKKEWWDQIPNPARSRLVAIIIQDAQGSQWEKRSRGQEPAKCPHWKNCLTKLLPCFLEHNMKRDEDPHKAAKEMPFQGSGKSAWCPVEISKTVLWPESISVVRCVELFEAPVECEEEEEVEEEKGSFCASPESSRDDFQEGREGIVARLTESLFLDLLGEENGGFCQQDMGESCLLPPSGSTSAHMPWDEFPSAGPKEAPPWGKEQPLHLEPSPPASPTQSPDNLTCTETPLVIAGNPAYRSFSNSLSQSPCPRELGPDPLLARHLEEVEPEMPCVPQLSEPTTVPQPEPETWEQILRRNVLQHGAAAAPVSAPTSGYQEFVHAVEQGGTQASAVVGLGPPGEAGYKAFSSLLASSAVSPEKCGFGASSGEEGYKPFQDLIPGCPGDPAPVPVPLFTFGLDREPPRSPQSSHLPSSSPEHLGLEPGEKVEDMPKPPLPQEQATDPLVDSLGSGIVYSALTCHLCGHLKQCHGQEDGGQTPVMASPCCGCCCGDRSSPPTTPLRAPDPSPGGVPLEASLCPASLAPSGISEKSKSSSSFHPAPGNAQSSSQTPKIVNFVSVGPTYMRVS
# T2: human IL-4Rα (human, UniProt P24394 26-232)
# T2 construct: also called Hu IL-4Rα; hIL-4Rα
# T2 sequence: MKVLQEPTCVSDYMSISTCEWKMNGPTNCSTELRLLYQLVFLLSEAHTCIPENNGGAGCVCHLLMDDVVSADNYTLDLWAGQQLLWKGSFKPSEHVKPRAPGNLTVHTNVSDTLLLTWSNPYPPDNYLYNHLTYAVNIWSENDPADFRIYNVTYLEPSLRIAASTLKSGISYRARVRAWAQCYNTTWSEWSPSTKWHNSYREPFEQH
# T3: cynomolgus monkey IL-4Rα (cynomolgus monkey, UniProt P24394 26-231 (human entry), limits assumed)
# T3 construct: also called Cyno IL-4Rα; cyIL-4Rα
# T3 chain: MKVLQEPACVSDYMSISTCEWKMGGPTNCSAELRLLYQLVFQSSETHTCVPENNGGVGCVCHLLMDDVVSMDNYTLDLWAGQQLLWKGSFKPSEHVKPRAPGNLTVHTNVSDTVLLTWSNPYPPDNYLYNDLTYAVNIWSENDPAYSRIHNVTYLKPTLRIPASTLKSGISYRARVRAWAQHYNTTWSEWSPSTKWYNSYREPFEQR
# B1: Construct 35 (mAb467) (antibody, IgG4, V domains shown)
# VH: EVQLVESGGGLEQPGGSLRLSCAGSGFTFRTYAMTWVRQAPGKGLEWVSSISGSGGNTYYADSVKGRFTISRDNSKNTLYLQMNSLRAEDTAVYYCAKDRVSITIRPRYYGLDVWGQGTTVTVSS
# VL: DIVMTQSPLSLPVTPGEPASISCTSSQSLLYSIGKNYVDWYLQKSGQSPQLLIYEGNNRATGVPDRFSGSGSGTDFTLKISRVEAEDVGFYYCMQSLTSPYTFGQGTKLEIK
# notes: VH/VL only
# B2: Construct 42 (mAb481) (antibody, IgG4, V domains shown)
# VH: B1 VH with S54D, G56S
# VL: B1 VL with S25A, K35Y, E55L, N58K, T61S, S96A, S99T
# notes: VH/VL only
# B3: Construct 36 (mAb469) (antibody, IgG4, V domains shown)
# VH: B1 VH with T31D, Y32F, T58I, V101L, I103K
# VL: B1 VL with T24R, T61S
# notes: VH/VL only
# B4: Construct 37 (mAb470) (antibody, IgG4, V domains shown)
# VH: B1 VH with S54G, V101L, I103V, I105V
# VL: B1 VL with T24R, S25A, I33V, K35Y, E55L, T61S
# notes: VH/VL only
# B5: Construct 44 (mAb485) (antibody, IgG4, V domains shown)
# VH: B1 VH with T31D, Y32F, T58I, V101L, I103K
# VL: B1 VL with T24R, S26T, T61S
# notes: VH/VL only
# B6: Construct 39 (mAb473) (antibody, IgG4, V domains shown)
# VH: B1 VH with T31D, Y32S, G56D, V101L, I105V
# VL: B1 VL with T24R, E55L, N58K, T61S, S96A, T98G
# notes: VH/VL only
# B7: Construct 41 (mAb478) (antibody, IgG4, V domains shown)
# VH: B1 VH with T31D, Y32F, S54G
# VL: B1 VL with S25A, K35Y, E55L, N58K, T61S, S96A, L97Y, T98N
# notes: VH/VL only
# B8: Construct 40 (mAb476) (antibody, IgG4, V domains shown)
# VH: B1 VH with T31D, Y32F, I51V, S54D, V101L, I103K
# VL: B1 VL with T24R, L29V, K35Y, E55L, N58K, T61S, S96A, L97Y, T98Q, T102V
# notes: VH/VL only
# B9: Construct 43 (mAb482) (antibody, IgG4, V domains shown)
# VH: B1 VH with T31D, Y32F, S54G, V101L, T104A, I105V
# VL: B1 VL with K35Y, E55L, N57S, N58K, T61S
# notes: VH/VL only
# Target: T1, hIL-4Rα on cells
# Test: FACS on HEK293 cells, competitor biotin-hIL-13;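 further: stably transduced cells co-expressing both receptor chains, stained cold, with cell-bound signal read as mean fluorescence intensity by flow cytometry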
row,Binder,Relative Blockade of IL-13 Binding IC50
1,B1,1.25 relative to dupilumab
2,B2,1.34 relative to dupilumab
3,B3,1.22 relative to dupilumab
4,B4,1.05 relative to dupilumab
5,B5,1.23 relative to dupilumab
6,B6,1.05 relative to dupilumab
7,B7,1.15 relative to dupilumab
8,B8,1.19 relative to dupilumab
9,B9,1.13 relative to dupilumab

# Target: T1, hIL-4Rα on cells
# Test: FACS on HEK293 cells, competitor biotin-hIL-4;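 further: HEK293 cells stably co-expressing hIL-13Rα and hIL-4Rα, stained for 1 h at 4 °C, read-out as mean fluorescence intensity by flow cytometry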
# Procedure: Briefly, HEK293 previously transduced to stably express both hIL-13Rα and hIL-4Rα were cultured and harvested. Cells were seeded at 200,000 cells in 100 uL per well. Cells were washed and the supernatant discarded. […] The cells were stained in this mixture at 4° C. for 1 hour. […] Cells were incubated 4° C. for 1 hour, protected from light. Cells were then washed and the MFI of cells in each well were recorded by FACS using a BD FACSCanto II. Subsequent data were analyzed using GraphPad Prism.
row,Binder,Relative Blockade of IL-4 Binding IC50
1,B1,1.29 relative to dupilumab
2,B2,1.32 relative to dupilumab
3,B3,1.18 relative to dupilumab
4,B4,1.08 relative to dupilumab
5,B5,1.21 relative to dupilumab
6,B6,1.09 relative to dupilumab
7,B7,1.09 relative to dupilumab
8,B8,1.16 relative to dupilumab
9,B9,1.02 relative to dupilumab

# Target: T1, hIL-4Rα on cells
# Test: cell-based or functional assay
Binder,Relative Inhibition of IL-4 induced pSTAT6 IC50,Relative Inhibition of IL-13 induced pSTAT6 IC50
B1,0.766 relative to dupilumab,2.71 relative to dupilumab
B2,0.81 relative to dupilumab,2.78 relative to dupilumab
B3,0.957 relative to dupilumab,2.16 relative to dupilumab
B4,0.713 relative to dupilumab,1.22 relative to dupilumab
B5,1.18 relative to dupilumab,3.76 relative to dupilumab
B6,0.81 relative to dupilumab,2.17 relative to dupilumab
B7,1.18 relative to dupilumab,1.97 relative to dupilumab
B8,0.633 relative to dupilumab,1.89 relative to dupilumab
B9,0.633 relative to dupilumab,2.29 relative to dupilumab

# Target: T1, hIL-4Rα on cells
# Test: cell-based or functional assay
# Remark: another data set of the same source
Binder,Relative Inhibition of IL-4 induced TF-1 Proliferation IC50,Relative Inhibition of IL-13 induced TF-1 Proliferation IC50
B1,0.948 relative to dupilumab,1.11 relative to dupilumab
B2,1.19 relative to dupilumab,1.19 relative to dupilumab
B3,1.05 relative to dupilumab,1.25 relative to dupilumab
B4,0.943 relative to dupilumab,0.919 relative to dupilumab
B5,1.15 relative to dupilumab,1.29 relative to dupilumab
B6,1.18 relative to dupilumab,1.21 relative to dupilumab
B7,0.82 relative to dupilumab,1.15 relative to dupilumab
B8,0.968 relative to dupilumab,1.01 relative to dupilumab
B9,1.13 relative to dupilumab,0.941 relative to dupilumab

# Target: T1, hIL-4Rα on cells
# Test: cell-based or functional assay
# Remark: another data set of the same source
Binder,Relative Inhibition of IL-4 induced TARC IC50,Relative Inhibition of IL-13 induced TARC IC50
B1,1.92 relative to dupilumab,1.65 relative to dupilumab
B2,2.02 relative to dupilumab,1.62 relative to dupilumab
B3,1.78 relative to dupilumab,0.999 relative to dupilumab
B4,1.16 relative to dupilumab,0.868 relative to dupilumab
B5,2.53 relative to dupilumab,5.72 relative to dupilumab
B6,1.65 relative to dupilumab,5.23 relative to dupilumab
B7,1.53 relative to dupilumab,1.35 relative to dupilumab
B8,1.6 relative to dupilumab,4.7 relative to dupilumab
B9,1.56 relative to dupilumab,2.3 relative to dupilumab

# Target: T2, human IL-4Rα
# Test: SPR, Carterra LSA;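 further: antibodies captured on an anti-human Fc sensor chip, antigen injected at several concentrations, association and dissociation rates fitted with a 1:1 Langmuir model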
# Procedure: (§1) Binding affinity (KD) of antibodies to human and cynomolgus monkey IL-4Rα was determined through surface plasmon resonance (SPR) using a Carterra LSA. Briefly, an HC30M sensor chip that was previously functionalized with a polyclonal mixture of goat anti-human Fc antibody and used to capture purified antibodies at a level between 100-1000 RLU. […] Regeneration of the chip between different concentrations of antigen was performed with 200 mM phosphoric acid and antibody was captured again as previously described. Association and dissociation rate constants were subsequently determined through fitting to a 1:1 Langmuir binding model using the Kinetics Software from Carterra from which a KD value was derived.
Binder,KD Relative to Dupilumab,Kd [nM]
B1,0.99,0.0112
B2,0.98,0.0111
B3,0.99,0.0112
B4,1.03,0.0116
B5,1.11,0.0125
B6,0.92,0.0104
B7,0.86,0.00973
B8,1.11,0.0126
B9,0.84,0.00943

# Target: T3, cynomolgus monkey IL-4Rα
# Test: SPR, Carterra LSA;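 further: antibodies captured on an anti-human Fc sensor chip, antigen injected at several concentrations, association and dissociation rates fitted with a 1:1 Langmuir model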
# Procedure: as §1
Binder,KD Relative to Dupilumab,Kd [nM]
B1,0.29,180
B2,0.25,158
B3,0.61,385
B4,0.23,143
B5,2.03,1280
B6,0.27,168
B7,0.39,248
B8,0.22,136
B9,0.24,150
